Experiment [1] concerns the target Matrix metalloproteinase-2 (human (endogenous in tumor cells)) (UniProt P08253).
Experiment [2] has as its target MMP-2–cleaved fibronectin (human).

Sequence of αvβ3 integrin (P05106 whole entry, looked up): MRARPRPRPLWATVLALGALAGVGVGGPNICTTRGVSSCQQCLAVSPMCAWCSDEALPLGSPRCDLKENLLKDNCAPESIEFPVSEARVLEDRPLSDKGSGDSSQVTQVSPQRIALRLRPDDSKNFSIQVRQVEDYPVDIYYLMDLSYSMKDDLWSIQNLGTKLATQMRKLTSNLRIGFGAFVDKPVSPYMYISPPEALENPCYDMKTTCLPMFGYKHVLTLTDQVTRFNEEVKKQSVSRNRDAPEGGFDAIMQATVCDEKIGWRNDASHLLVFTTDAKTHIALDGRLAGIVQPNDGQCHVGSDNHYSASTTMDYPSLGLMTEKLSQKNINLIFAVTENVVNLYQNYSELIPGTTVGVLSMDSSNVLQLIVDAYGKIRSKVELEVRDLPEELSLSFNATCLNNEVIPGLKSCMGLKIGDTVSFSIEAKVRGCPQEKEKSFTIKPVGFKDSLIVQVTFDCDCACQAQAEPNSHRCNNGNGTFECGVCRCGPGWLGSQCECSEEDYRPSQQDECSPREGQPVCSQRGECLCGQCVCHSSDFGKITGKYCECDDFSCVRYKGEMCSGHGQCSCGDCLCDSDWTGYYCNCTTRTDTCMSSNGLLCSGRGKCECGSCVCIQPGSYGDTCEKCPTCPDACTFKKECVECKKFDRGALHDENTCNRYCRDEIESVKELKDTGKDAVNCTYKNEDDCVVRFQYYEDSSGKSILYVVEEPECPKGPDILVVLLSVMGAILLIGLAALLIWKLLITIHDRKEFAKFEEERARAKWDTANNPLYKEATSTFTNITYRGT
Sequence of UniProt P08253 (P08253 30-660): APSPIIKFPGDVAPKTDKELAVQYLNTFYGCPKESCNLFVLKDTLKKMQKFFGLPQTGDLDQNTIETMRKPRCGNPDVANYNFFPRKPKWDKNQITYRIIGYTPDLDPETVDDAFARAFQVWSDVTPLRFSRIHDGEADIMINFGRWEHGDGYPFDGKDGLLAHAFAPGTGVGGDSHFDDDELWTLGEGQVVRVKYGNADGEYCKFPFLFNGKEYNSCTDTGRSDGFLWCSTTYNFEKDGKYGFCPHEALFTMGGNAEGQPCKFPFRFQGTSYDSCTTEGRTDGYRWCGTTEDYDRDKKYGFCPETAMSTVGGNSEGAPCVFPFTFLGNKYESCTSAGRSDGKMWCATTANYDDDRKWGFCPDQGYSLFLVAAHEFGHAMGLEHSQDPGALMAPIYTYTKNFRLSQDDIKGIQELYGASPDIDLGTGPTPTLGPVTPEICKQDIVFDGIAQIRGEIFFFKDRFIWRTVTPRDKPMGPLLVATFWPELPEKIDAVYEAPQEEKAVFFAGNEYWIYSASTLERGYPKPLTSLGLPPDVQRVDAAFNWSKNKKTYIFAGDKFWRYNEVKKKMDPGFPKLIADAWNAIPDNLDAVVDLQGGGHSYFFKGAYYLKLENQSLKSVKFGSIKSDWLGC

As for “αvβ3 integrin (from UniProt P05106 27-788) (receptor)”, the static adhesion of fluorescently stained A375 cells to wells coated with APMA-activated recombinant human MMP-2, compared with cells blocked with RGD peptides in experiment [1] is above 59%. The same substance showed an adhesion of M21 melanoma cells (30 min) to plates coated with MMP-2–cleaved fibronectin compared with full-length fibronectin; no obvious changes with M21-L cells that lack αvβ3 integrin in experiment [2] above 34%.

The record behind these values is publication PMC3407216.
